The values below are quoted from earlier work in publication PMC3359286.

For the series, the target named is hemoglobin (Homo sapiens) (UniProt P69905).
hemoglobin (Homo sapiens), sequence (P69905 2-142, chain 1 of 2): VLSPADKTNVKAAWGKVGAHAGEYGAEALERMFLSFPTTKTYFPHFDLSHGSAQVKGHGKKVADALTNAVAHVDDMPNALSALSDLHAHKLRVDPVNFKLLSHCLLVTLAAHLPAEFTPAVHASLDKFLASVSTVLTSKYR
hemoglobin (Homo sapiens), sequence (P68871 2-147, chain 2 of 2, further chain): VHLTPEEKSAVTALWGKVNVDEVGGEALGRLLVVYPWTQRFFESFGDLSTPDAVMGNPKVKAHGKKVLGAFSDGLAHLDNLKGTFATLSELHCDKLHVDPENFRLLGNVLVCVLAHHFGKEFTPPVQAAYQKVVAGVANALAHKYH

In the case of IsdB (from UniProt A7X146), the Kd – broadly, the concentration at which binding is half-saturated – was 55 nM.
